Series [1] concerns PilJ soluble domain (Clostridioides difficile R20291?). As to the kind of experiment: EMSA. The note with it: 25C: 10 ng DNA in 10 ul, 10 mM Tris-HCl pH 8.5, 50 mM NaCl, 1 mg/ml BSA, 30 min, 1.5% agarose; 4C: 500 ng DNA in 10 ul, 20 mM Tris-HCl pH 8.3, 100 mM NaCl ….
The test system of series [2] is PilW soluble domain (Clostridioides difficile R20291?). Description: EMSA. The note with it: 25C: 10 ng DNA in 10 ul, 10 mM Tris-HCl pH 8.5, 50 mM NaCl, 1 mg/ml BSA, 30 min, 1.5% agarose; 4C: 500 ng DNA in 10 ul, 20 mM Tris-HCl pH 8.3, 100 mM NaCl …. (A gel shift assay detects complexes by their altered migration in electrophoresis.)

A word on the Kd: it is a measure of binding affinity in units of concentration. Higher therefore signals lower affinity. Turning to plasmid DNA (25C EMSA), the dissociation constant Kd came to 2.2 µM in series [1] and 14.5 µM in series [2].
